The text below walks through data of US20140087995A1 (published 2014).

By IC50 is commonly meant the concentration that inhibits the measured activity by half.

First the molecules themselves.
B1: N^ε1-[2-[2-[2-(19-carboxynonadecanoylamino)ethoxy]ethoxy]acetyl]-[His14,Arg17,Pro21,Pro27]-h-amylin (peptide)
peptide: K([AEEA-C20 diacid])CNTATCATQRLAHFLRHSSPNFGAIPSSTNVGSNTY-NH2
modifications: disulfide 2-7; N-terminus assumed
SMILES: CC[C@H](C)[C@H](NC(=O)[C@H](C)NC(=O)CNC(=O)[C@H](Cc1ccccc1)NC(=O)[C@H](CC(N)=O)NC(=O)[C@@H]1CCCN1C(=O)[C@H](CO)NC(=O)[C@H](CO)NC(=O)[C@H](Cc1c[nH]cn1)NC(=O)[C@H](CCCNC(=N)N)NC(=O)[C@H](CC(C)C)NC(=O)[C@H](Cc1ccccc1)NC(=O)[C@H](Cc1c[nH]cn1)NC(=O)[C@H](C)NC(=O)[C@H](CC(C)C)NC(=O)[C@H](CCCNC(=N)N)NC(=O)[C@H](CCC(N)=O)NC(=O)[C@@H](NC(=O)[C@H](C)NC(=O)[C@@H]1CSSC[C@H](NC(=O)[C@@H](N)CCCCNC(=O)COCCOCCNC(=O)CCCCCCCCCCCCCCCCCCC(=O)O)C(=O)N[C@@H](CC(N)=O)C(=O)N[C@@H]([C@@H](C)O)C(=O)N[C@@H](C)C(=O)N[C@@H]([C@@H](C)O)C(=O)N1)[C@@H](C)O)C(=O)N1CCC[C@H]1C(=O)N[C@@H](CO)C(=O)N[C@@H](CO)C(=O)N[C@H](C(=O)N[C@@H](CC(N)=O)C(=O)N[C@H](C(=O)NCC(=O)N[C@@H](CO)C(=O)N[C@@H](CC(N)=O)C(=O)N[C@H](C(=O)N[C@@H](Cc1ccc(O)cc1)C(N)=O)[C@@H](C)O)C(C)C)[C@@H](C)O
notes: Synthetic acylated analogue of human amylin; also called compound 90
B2: N^ε1-[2-[2-[2-[[2-[2-[2-[[(4S)-4-carboxy-4-(19-carboxynonadecanoylamino)butanoyl]amino]ethoxy]ethoxy]acetyl]amino]ethoxy]ethoxy]acetyl]-[Arg17,Pro21,Pro27,Pro31 … (peptide)
peptide: K([AEEA-AEEA-γGlu-C20 diacid])CNTATCATQRLANFLRHSSPNFGAIPSSTPVGSNTY-NH2
modifications: disulfide 2-7; N-terminus assumed
SMILES: CC[C@H](C)[C@H](NC(=O)[C@H](C)NC(=O)CNC(=O)[C@H](Cc1ccccc1)NC(=O)[C@H](CC(N)=O)NC(=O)[C@@H]1CCCN1C(=O)[C@H](CO)NC(=O)[C@H](CO)NC(=O)[C@H](Cc1c[nH]cn1)NC(=O)[C@H](CCCNC(=N)N)NC(=O)[C@H](CC(C)C)NC(=O)[C@H](Cc1ccccc1)NC(=O)[C@H](CC(N)=O)NC(=O)[C@H](C)NC(=O)[C@H](CC(C)C)NC(=O)[C@H](CCCNC(=N)N)NC(=O)[C@H](CCC(N)=O)NC(=O)[C@@H](NC(=O)[C@H](C)NC(=O)[C@@H]1CSSC[C@H](NC(=O)[C@@H](N)CCCCNC(=O)COCCOCCNC(=O)COCCOCCNC(=O)CC[C@H](NC(=O)CCCCCCCCCCCCCCCCCCC(=O)O)C(=O)O)C(=O)N[C@@H](CC(N)=O)C(=O)N[C@@H]([C@@H](C)O)C(=O)N[C@@H](C)C(=O)N[C@@H]([C@@H](C)O)C(=O)N1)[C@@H](C)O)C(=O)N1CCC[C@H]1C(=O)N[C@@H](CO)C(=O)N[C@@H](CO)C(=O)N[C@H](C(=O)N1CCC[C@H]1C(=O)N[C@H](C(=O)NCC(=O)N[C@@H](CO)C(=O)N[C@@H](CC(N)=O)C(=O)N[C@H](C(=O)N[C@@H](Cc1ccc(O)cc1)C(N)=O)[C@@H](C)O)C(C)C)[C@@H](C)O
notes: Synthetic acylated analogue of human amylin; also called compound 96
B3: N^ε1-[2-[2-[2-[[2-[2-[2-[[(4S)-4-carboxy-4-(19-carboxynonadecanoylamino)butanoyl]amino]ethoxy]ethoxy]acetyl]amino]ethoxy]ethoxy]acetyl]-[Arg17,Pro21,Pro27,Arg34 … (peptide)
peptide: K([AEEA-AEEA-γGlu-C20 diacid])CNTATCATQRLANFLRHSSPNFGAIPSSTNVGRNTY-NH2
modifications: disulfide 2-7; N-terminus assumed
SMILES: CC[C@H](C)[C@H](NC(=O)[C@H](C)NC(=O)CNC(=O)[C@H](Cc1ccccc1)NC(=O)[C@H](CC(N)=O)NC(=O)[C@@H]1CCCN1C(=O)[C@H](CO)NC(=O)[C@H](CO)NC(=O)[C@H](Cc1c[nH]cn1)NC(=O)[C@H](CCCNC(=N)N)NC(=O)[C@H](CC(C)C)NC(=O)[C@H](Cc1ccccc1)NC(=O)[C@H](CC(N)=O)NC(=O)[C@H](C)NC(=O)[C@H](CC(C)C)NC(=O)[C@H](CCCNC(=N)N)NC(=O)[C@H](CCC(N)=O)NC(=O)[C@@H](NC(=O)[C@H](C)NC(=O)[C@@H]1CSSC[C@H](NC(=O)[C@@H](N)CCCCNC(=O)COCCOCCNC(=O)COCCOCCNC(=O)CC[C@H](NC(=O)CCCCCCCCCCCCCCCCCCC(=O)O)C(=O)O)C(=O)N[C@@H](CC(N)=O)C(=O)N[C@@H]([C@@H](C)O)C(=O)N[C@@H](C)C(=O)N[C@@H]([C@@H](C)O)C(=O)N1)[C@@H](C)O)C(=O)N1CCC[C@H]1C(=O)N[C@@H](CO)C(=O)N[C@@H](CO)C(=O)N[C@H](C(=O)N[C@@H](CC(N)=O)C(=O)N[C@H](C(=O)NCC(=O)N[C@@H](CCCNC(=N)N)C(=O)N[C@@H](CC(N)=O)C(=O)N[C@H](C(=O)N[C@@H](Cc1ccc(O)cc1)C(N)=O)[C@@H](C)O)C(C)C)[C@@H](C)O
notes: Synthetic acylated analogue of human amylin; also called compound 95
B4: N^ε1-[2-[2-[2-[[2-[2-[2-[[(4S)-4-carboxy-4-(19-carboxynonadecanoylamino)butanoyl]amino]ethoxy]ethoxy]acetyl]amino]ethoxy]ethoxy]acetyl]-[Arg17,Pro21,Pro27,His34 … (peptide)
peptide: K([AEEA-AEEA-γGlu-C20 diacid])CNTATCATQRLANFLRHSSPNFGAIPSSTNVGHNTY-NH2
modifications: disulfide 2-7; N-terminus assumed
SMILES: CC[C@H](C)[C@H](NC(=O)[C@H](C)NC(=O)CNC(=O)[C@H](Cc1ccccc1)NC(=O)[C@H](CC(N)=O)NC(=O)[C@@H]1CCCN1C(=O)[C@H](CO)NC(=O)[C@H](CO)NC(=O)[C@H](Cc1c[nH]cn1)NC(=O)[C@H](CCCNC(=N)N)NC(=O)[C@H](CC(C)C)NC(=O)[C@H](Cc1ccccc1)NC(=O)[C@H](CC(N)=O)NC(=O)[C@H](C)NC(=O)[C@H](CC(C)C)NC(=O)[C@H](CCCNC(=N)N)NC(=O)[C@H](CCC(N)=O)NC(=O)[C@@H](NC(=O)[C@H](C)NC(=O)[C@@H]1CSSC[C@H](NC(=O)[C@@H](N)CCCCNC(=O)COCCOCCNC(=O)COCCOCCNC(=O)CC[C@H](NC(=O)CCCCCCCCCCCCCCCCCCC(=O)O)C(=O)O)C(=O)N[C@@H](CC(N)=O)C(=O)N[C@@H]([C@@H](C)O)C(=O)N[C@@H](C)C(=O)N[C@@H]([C@@H](C)O)C(=O)N1)[C@@H](C)O)C(=O)N1CCC[C@H]1C(=O)N[C@@H](CO)C(=O)N[C@@H](CO)C(=O)N[C@H](C(=O)N[C@@H](CC(N)=O)C(=O)N[C@H](C(=O)NCC(=O)N[C@@H](Cc1c[nH]cn1)C(=O)N[C@@H](CC(N)=O)C(=O)N[C@H](C(=O)N[C@@H](Cc1ccc(O)cc1)C(N)=O)[C@@H](C)O)C(C)C)[C@@H](C)O
notes: Synthetic acylated analogue of human amylin; also called compound 97

Numbered stars: 1 amine (or outer) side, 2 acyl side, 3 side chain; on linkers, the order of the positions; unused ones are H or OH. Bridge positions count the residues as written; N and C are the ends. Side chains are listed from the residue outwards. Ends that are not written are not given here. * marks the point of attachment. C20 diacid = O=C(O)CCCCCCCCCCCCCCCCCCC(=O)*; γGlu = O=C(O)[C@H](CCC(=O)[*:2])N[*:1]; AEEA = NCCOCCOCC(=O)O

The first assay deals with T1, rat calcitonin receptor (rat, UniProt P32214 25-516).
T1 construct: whole, on cells; Membranes of transiently transfected BHK tk'ts 13 cells; also called rCTR; rat calcitonin (a) receptor
T1 sequence (looked up): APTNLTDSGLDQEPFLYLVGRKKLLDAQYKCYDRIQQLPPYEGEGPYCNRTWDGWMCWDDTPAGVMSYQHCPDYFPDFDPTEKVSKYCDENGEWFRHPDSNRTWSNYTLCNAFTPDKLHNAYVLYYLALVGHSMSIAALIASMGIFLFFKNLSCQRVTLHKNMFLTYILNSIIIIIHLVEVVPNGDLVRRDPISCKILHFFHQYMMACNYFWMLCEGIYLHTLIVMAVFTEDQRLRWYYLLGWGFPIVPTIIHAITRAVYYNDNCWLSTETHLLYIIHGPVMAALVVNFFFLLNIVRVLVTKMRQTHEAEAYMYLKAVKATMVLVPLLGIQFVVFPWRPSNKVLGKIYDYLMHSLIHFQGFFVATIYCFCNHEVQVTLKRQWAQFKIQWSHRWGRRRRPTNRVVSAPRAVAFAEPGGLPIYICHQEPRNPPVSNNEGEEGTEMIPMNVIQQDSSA
Nature of the assay: ratio of IC50 on rat calcitonin receptor to IC50 on rat amylin receptor (reference m40).
For B1, the “Ratio rCT/rAmylin binding” value came to 74.1.

Consider B2, for which the “Ratio rCT/rAmylin binding” value was determined as 118.

Take B3: the “Ratio rCT/rAmylin binding” value turned out to be 71.3.

Consider B4, for which the “Ratio rCT/rAmylin binding” value is 71.1.

A further assay deals with T2, human calcitonin receptor (human, UniProt P30988 25-474).
T2 construct: whole, on cells; Membranes of stably transfected cells; also called hCTR; hCT
T2 sequence (looked up): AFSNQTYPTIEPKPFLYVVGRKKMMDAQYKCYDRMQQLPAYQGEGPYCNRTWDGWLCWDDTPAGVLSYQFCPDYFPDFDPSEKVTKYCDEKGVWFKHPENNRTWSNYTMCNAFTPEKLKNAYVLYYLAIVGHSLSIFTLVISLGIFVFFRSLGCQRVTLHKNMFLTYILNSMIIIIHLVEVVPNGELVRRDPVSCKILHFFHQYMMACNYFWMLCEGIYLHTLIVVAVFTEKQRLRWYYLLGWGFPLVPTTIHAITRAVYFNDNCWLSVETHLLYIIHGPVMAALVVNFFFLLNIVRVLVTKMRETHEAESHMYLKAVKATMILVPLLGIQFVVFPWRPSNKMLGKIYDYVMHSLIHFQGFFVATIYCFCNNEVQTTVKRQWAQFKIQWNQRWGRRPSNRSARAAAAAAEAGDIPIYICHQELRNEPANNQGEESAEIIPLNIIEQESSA
The assay is described as follows: ratio of IC50 on human calcitonin receptor to IC50 on human amylin receptor (reference m42), SPA competition. The protocol:
The resulting pellet was resuspended, homogenized and centrifuged (20.000 rpm, 15 min) in a buffer containing 20 mM Na-HEPES and 0.1 mM EDTA (pH 7.4, buffer 2). The resulting pellet was resuspended in buffer 2 and protein concentration was measured (BCA protein Assay, Pierce). The homogenate was kept cold during the whole procedure. The membranes were kept at −80° C. until use. The assay was performed in a 384 well Optiplate (PerkinElmer) in a total volume of 40 ul. Membranes were mixed with SPA beads. Final concentration of membranes 35 ng/μL final and SPA beads was 0.05 mg/well. Test-compounds were dissolved in DMSO and further diluted in assay buffer (50 mM Hepes, pH 7.4, 1 mM CaCl2, 5 mM MgCl₂, 0.1% OA and 0.02% Tween20). […] The final mixture was incubated with shaking at 400 rpm for 120 min at 25° C. prior to centrifugation (1500 rpm, 10 min). Samples were analyzed on TopCounter™ (Packard). The IC₅₀ was calculated using (one site binding competition analysis) GraphPad Prism5 as a measure of receptor affinity.
Membranes were prepared in the following way; the cells were rinsed with PBS and incubated with Versene for approximately 5 min before harvesting. The cells were flushed with PBS and the cell-suspension was centrifuged for 5 min at 1000 rpm. Cells were homogenized (Ultrathurrax) in a buffer containing 20 mM Na-HEPES and 10 mM EDTA (pH 7.4) and centrifuged at 20.000 rpm for 15 min. The resulting pellet was resuspended, homogenized and centrifuged (20.000 rpm, 15 min) in a buffer containing 20 mM Na-HEPES and 0.1 mM EDTA (pH 7.4, buffer 2). The resulting pellet was resuspended in buffer 2 and protein concentration was measured (BCA protein Assay, Pierce). The homogenate was kept cold during the whole procedure. The membranes were kept at −80° C. until use. Assay was performed in a 384 well Optiplate (PerkinElmer) in a total volume of 40 ul. Membranes were mixed with SPA beads.
Turning to B1, the “Ratio hCT/hAmylin binding” value turned out to be 42.2.

For the molecule B2, the “Ratio hCT/hAmylin binding” value was found to be 79.6.

Take B3: the “Ratio hCT/hAmylin binding” value turned out to be 63.4.

On to B4, for which the “Ratio hCT/hAmylin binding” value was determined as 104.

The target in a further assay is T1, rat calcitonin receptor. The assay is described as follows: SPA competition with 125I-calcitonin on membranes of BHK tk'ts 13 cells with rat calcitonin receptor (Assay VIII).
Regarding B1, the IC50 amounted to 18.2 nM.

On to B2, for which the IC50 is 62.2 nM.

In the case of B3, the IC50 was determined as 388 nM.

Regarding B4, the IC50 came to 159 nM.

The target of the next assay is T3, rat amylin receptor (rat calcitonin receptor + rat RAMP 3) (rat, UniProt P32214 25-516; Q9JJ73 23-147).
T3 construct: whole, on cells; Membranes of transiently transfected BHK tk'ts 13 cells; also called rAmylin-R; rat amylin 3(a) receptor
T3 sequence (looked up) 1: T1 sequence (looked up)
T3 sequence (looked up) 2: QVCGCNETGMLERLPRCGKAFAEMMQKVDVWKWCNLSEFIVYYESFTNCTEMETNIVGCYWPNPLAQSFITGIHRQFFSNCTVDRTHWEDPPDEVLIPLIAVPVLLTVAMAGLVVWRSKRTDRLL
The assay is described as follows: SPA competition with 125I-rat amylin on membranes of BHK tk'ts 13 cells with rat calcitonin receptor + rat RAMP3 (Assay VI).
With B1, the IC50 was 0.246 nM.

Turning to B2, the concentration for half-maximal inhibition (IC50) came out at 0.529 nM.

As for B3, the IC50 turned out to be 5.45 nM.

B4: the IC50 was 2.24 nM.
